Patent US20060134801A1, “Methods and compositions involving MDA-7” (Board of Regents, The University of Texas System, priority 2003, published 2006)

Columns and labels:
[1] = system: HUVEC; assay: Endothelial cell differentiation (tube formation) assay on Matrigel; assay type: cell-based, human
Experimental: Endothelial cell differentiation (tube formation) assays were done using the in vitro angiogenesis assay kit (Chemicon, Temecula, Calif.). Briefly, HUVEC and HMVEC were grown to 80% confluency, collected, resuspended in growth medium, and plated at a concentration of 2−10^4 cells/well in a 96-well plate coated with Matrigel (Chemicon, Temecula, Calif.). Cells were treated with sMDA-7 protein (1, 5, 10, and 50 ng/ml), or a preparation immunodepleted of sMDA protein for 24 h at 37° C. Cells treated with PBS served as negative controls in these experiments. The ability of sMDA-7 to inhibit tube formation was determined and quantitated by counting the number of tubes under bright-field microscopy.
For experiments involving comparative studies, cells were treated with equimolar concentrations of sMDA-7 (5, 10, and 300 ng/ml), recombinant human endostatin (5.2, 10.4, and 315 ng/ml; Calbiochem, La Jolla, Calif.), recombinant IFN-γ (4.5, 9, and 268 ng/ml; R&D systems, Minneapolis, Minn.) or recombinant IP-10 (2.4, 4.5, and 134 ng/ml; R&D systems, Minneapolis, Minn.) and analyzed for tube formation assay as described above. All samples were tested in duplicate. Experiments were repeated at least 5-6 times.
For receptor blocking studies, HUVEC grown in six-well plates were pretreated with IL-22R1 blocking antibody (1 ng/ml and 5 ng/ml). Following overnight incubation, cells were harvested, washed, and plated in Matrigel coated 96-well plates. Fresh IL-22R1 blocking antibody and sMDA-7 was added to the wells in a 1:1 ratio (1 ng/ml of IL-22R1 antibody:1 ng/ml of sMDA-7) or 1:5 ratio (1 ng/ml of IL-22R1 antibody:5 ng/ml of sMDA-7) and incubated at 37° C. After overnight incubation, the plates were examined for tube formation. All other experimental procedures were the same as described above. […] The relative amount of IL-22R1 used for experiments involving endostatin was 315 ng/ml (1:1 ratio) and 134 ng/ml for experiments involving IP-10 (1:1 ratio). All other experimental procedures were the same as described previously. For blocking studies using anti-IP-10 or anti-IFN-γ neutralizing antibodies (R & D Systems), experiments were conducted as described above for receptor studies except that HUVEC were treated with the appropriate neutralizing antibody (1 μg and 5 μg/ml) prior to treatment with sMDA-7 (300 ng/ml).

[2] = system: melanoma cell lines; assay: Trypan blue viability, melanoma cell lines (panel); assay type: cell-based, human
Text: rhMDA-7 (IL-24) protein was purified from 293-mda7 cells using affinity chromatography. Various lots of protein ranged from 30% ->80% purity based upon silver stain. The rhMDA-7 protein was applied to melanoma cell lines, and cells assessed for viability using the Trypan blue assay. […] Treatment of melanoma cells with rhMDA-7 results in rapid activation (via phosphorylation) of STAT3. The cytotoxicity observed in melanoma cells is inhibited by anti-MDA-7 antibodies.
The mechanism of the anti-tumor activity of rhMDA-7 was also evaluated. Melanoma cells were treated with rhMDA-7 protein and assessed for apoptosis using the TUNEL assay. […] These studies were performed with purified rhMDA-7 protein. The melanoma cells have also been treated with supernatant from 293-mda7 cells or control 293 cells. Only the 293-mda7 supernatant causes cell killing.

[3] = system: iNOS; assay: iNOS expression in melanoma cell lines (immunostaining of cytospins); assay type: cell-based, human; set-up: dose or concentration left out as unconfirmed; conditions: A375; 48 h
Experimental: Replication-deficient human type 5 adenovirus (Ad5) carrying the mda-7 gene was obtained from Introgen Therapeutics (Houston, Tex.). The mda-7 gene was linked to an internal CMV-EE promoter and followed by SV40 polyadenylation. Ad-Luc and Ad-CMV polyadenylation (luciferase and empty vector, respectively), were used as control viruses. Cells were plated 1 day before infection. […] Experimental conditions were optimized to achieve MDA-7 protein expression by >70% of cells, based on results of immunohistochemical staining.
[…] At baseline, these melanoma cell lines express high levels of iNOS and are negative for MDA-7. Forty-eight h after vector treatment, the cells were collected, and cytospins were prepared to analyze iNOS expression. […] It has been shown previously that MDA-7 is secreted by Ad-mda7-infected melanoma cells (Lebedova et al., 2002; Mhashilkar et al., 2001).

[4] = system: IRF-1 and IRF-2 in MeWo cells; assay: Immunoblotting of IRF-1 and IRF-2; assay type: cell-based, human; conditions: within 4 h
Experimental: Two×10^6 cultured melanoma cell lines were rinsed twice in ice-cold PBS and lysed in 60 μl of lysis buffer [25 mM Tris, 140 mM NaCl, and 1% NP40 (pH 7.5)] containing 5 mM EDTA, 0.2 mM orthovanadate, 10 mM NaF, leupeptin, aprotinin, and phenylmethylsulfonyl fluoride for 10 min on ice. Equal amounts of total protein (measured with DC Protein Assay Reagent; Bio-Rad Labs, Hercules, Calif.) were loaded on a standard 10% SDS polyacrylamide gel, and fractionated proteins were electroblotted onto a nitrocellulose membrane. Nitrocellulose membranes were blocked for 1 h at room temperature using 5% dry milk in 1× PBS and washed three times for 5 min each in PBS containing 0.05% Tween 20 at room temperature. The membranes were incubated overnight at 4° C. in a sealed bag with a 1:2000 dilution of IRF-1 and IRF-2 polyclonal antibodies in 10 ml of 5% dry milk/0.1% Tween 20 in 1× PBS. The membranes were washed three times for 5 min each in PBS containing 0.05% Tween 20, and then incubated with peroxidase-conjugated antirabbit IgG secondary antibody (Transduction Laboratories) at 1:2000 dilution in PBS with 5% dry milk and 0.1 % Tween 20 for 45 min at room temperature. The blots were visualized using an enhanced chemiluminescence detection kit (Amersham, Arlington Heights, Ill.).

[5] = system: PAC1 SMC; assay: Cell death after recombinant MDA-7; assay type: cell-based, rat
Experimental: Cell viability was determined using the Trypan-blue exclusion assay. Briefly, total cells (suspension+trypsinized) were mixed 1:1 with Trypan blue solution (Gibco-BRL) and then observed under a hemocytometer via light microscopy. The percent of blue cells (dead cells) were counted (an average count of 3-5 fields were made).
Cells are plated in chamber slides and treated with MDA-7 protein for 60 minutes and then washed thoroughly with PBS (3×). The cells are then fixed with methanol:acetic acid (95:5 vol:vol) and stained with anti-pStat3 monoclonal antibody (1:1000 dilution; Cell Signalling) for 1 h at 4° C. The cells are then washed 3× with PBS and treated with secondary antibody (1:1000 dilution; Texas Red-conjugated-Rabbit anti mouse IgG; Sigma) for 1 h at 4° C. The cells are then washed and examined under fluorescence microscopy.

B1: sMDA-7: soluble secreted human MDA-7 (IL-24) protein purified from stably transfected 293-mda-7 cells (protein)
chain: AQGQEFHFGPCQVKGVVPQKLWEAFWAVKDTMQAQDNITSARLLQQEVLQNVSDAESCYLVHTLLEFYLKTVFKNYHNRTVEVRTLKSFSTLANNFVLIVSQLQPSQENEMFSIRDSAHRRFLLFRRAFKQLDVEAALTKALGEVDILLTWMQKFYKL
- inhibitory activity on tube formation in presence of anti-IP-10 or anti-IFN-γ neutralizing antibodies [1]: not lost
- tube formation ([1]; 5 ng/ml alone): completely inhibited
- formation of capillary tube-like structures ([1]; HUVEC and HMVEC, 1, 5, 10, 50 ng/ml): significantly inhibited
- concentration required to significantly inhibit HUVEC tube formation ([1]; equimolar comparison): 10 ng/mL
- death in melanoma cells ([2]; 0-20 ng/ml, 4 days): dose-dependent death
- melanoma lines showing cytotoxicity ([2]; 40 ng/ml for 3 days): 5 of 6
- iNOS expression [3]: clear down-regulation
- fall in IRF-1 expression [4]: ~4 fold
- increase in IRF-2 expression [4]: 4.7 fold
- cell death [5]: No statistically significant increase in cell death
